Test results taken from US20150203577A1 (Chugai, published 2015).

T1: mouse FcγRIII extracellular domain, C-terminal His tag (mouse, UniProt P08508 31-215)
T1 construct: also called mFcγRIII; mFcgRIII
T1 chain: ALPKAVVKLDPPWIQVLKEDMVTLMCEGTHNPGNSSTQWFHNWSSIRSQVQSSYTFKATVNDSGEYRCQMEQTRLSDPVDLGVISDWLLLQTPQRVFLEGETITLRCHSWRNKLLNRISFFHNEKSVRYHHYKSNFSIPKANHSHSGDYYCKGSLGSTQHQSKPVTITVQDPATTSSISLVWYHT

T2: mouse FcγRII extracellular domain, C-terminal His tag (mouse, UniProt P08101 30-210)
T2 construct: also called mFcγRII; mFcgRII
T2 sequence: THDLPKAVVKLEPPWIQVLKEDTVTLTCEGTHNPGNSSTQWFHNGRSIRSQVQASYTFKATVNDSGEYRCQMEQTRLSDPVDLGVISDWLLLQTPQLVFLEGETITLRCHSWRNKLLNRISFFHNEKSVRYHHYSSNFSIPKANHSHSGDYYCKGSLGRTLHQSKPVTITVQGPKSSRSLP

T3: mouse FcγRIII extracellular domain with C-terminal His tag (mouse, UniProt P08508 31-215)
T3 construct: Made on the basis of NCBI NP-034318.2; also called mFcγRIII; mFcgRIII
T3 chain: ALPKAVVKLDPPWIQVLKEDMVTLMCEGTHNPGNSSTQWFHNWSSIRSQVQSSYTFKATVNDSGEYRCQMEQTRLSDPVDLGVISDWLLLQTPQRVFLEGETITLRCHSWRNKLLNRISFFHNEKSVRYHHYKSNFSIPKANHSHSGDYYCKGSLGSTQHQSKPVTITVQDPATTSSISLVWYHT

T4: mouse FcγRII extracellular domain with C-terminal His tag (mouse, UniProt P08101 30-210)
T4 construct: Made on the basis of NCBI NP-034317.1; also called mFcγRII; mFcgRII
T4 sequence: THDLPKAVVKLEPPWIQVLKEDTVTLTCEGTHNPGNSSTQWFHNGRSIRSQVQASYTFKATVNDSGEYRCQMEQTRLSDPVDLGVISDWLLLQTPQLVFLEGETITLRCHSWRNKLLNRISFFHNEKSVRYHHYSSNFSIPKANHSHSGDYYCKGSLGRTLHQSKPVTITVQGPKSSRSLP


Columns and labels:
[1] = target: T1, mouse FcγRIII extracellular domain, …; test: SPR (Biacore T200), antibody captured on Protein L, mFcγR analyte
[2] = target: T2, mouse FcγRII extracellular domain, …; test: as above
[3] = target: T3, mouse FcγRIII extracellular domain with …; test: SPR Biacore T200
Protocol: (§1) Each altered antibody was analyzed for its interaction with each Fcγ receptor prepared above using Biacore T100 (GE Healthcare Japan Corp.), Biacore T200 (GE Healthcare Japan Corp.), Biacore A100, or Biacore 4000. The running buffer used was HBS-EP+ (GE Healthcare Japan Corp.). The assay temperature was set to 25° C. The sensor chips used were chips prepared by immobilizing Protein L (ACTIGEN or BioVision) onto Series S Sensor Chip CM5 (GE Healthcare Japan Corp.) or Series S Sensor Chip CM4 (GE Healthcare Japan Corp.) by the amine coupling method.
(§2) In order to calculate the KD value of each altered antibody for FcγR, kinetic analysis was conducted according to the following method: first, the antibody of interest was captured onto any of these chips and allowed to interact with mFcγR diluted with a running buffer. For the obtained sensorgram, the assay results were globally fit into the 1:1 Langmuir binding model using Biacore Evaluation Software to calculate an association rate constant ka (L/mol/s) and a dissociation rate constant kd (1/s). From these values, the dissociation constant KD (mol/L) was calculated.

[4] = target: T4, mouse FcγRII extracellular domain with …; test: SPR Biacore T200
Protocol: as §1, §2

[5] = target: T4, mouse FcγRII extracellular domain with …; test: SPR Biacore T200; KD mFcγRIII / KD mFcγRII
Protocol: as §1, §2

Row | Binder | Kd [1] | relative mFcγRIII-binding activity (mIgG1 = 1) [1] | Kd [2] | relative mFcγRII-binding activity (mIgG1 = 1) [2] | relative mFcγRIII-binding activity (mIgG1 = 1) [3] | relative mFcγRII-binding activity (mIgG1 = 1) [4] | relative I/A (mFcγRII selectivity) (mIgG1 = 1) [5]
1 | H237-MB868/MRAL-k0 (antibody, mouse IgG1, kappa, copies: 2 + 2) heavy: QVQLQESGPGLVKPSETLSLTCAVSGHSISHDHAWSWVRQPPGEGLEWIGFISYSGITNYNPSLQGRVTISRDNSKNTLYLQMNSLRAEDTAVYYCARSLARTTAMDYWGEGTLVTVSSAKTTPPSVYPLAPGSAAQTNSMVTLGCLVKGYFPEPVTVTWNSGSLSSGVHTFPAVLQSDLYTLSSSVTVPSSTWPSETVTCNVAHPASSTKVDKKIVPRDCGCKPCICEPNEVEIVFIFPPKPKDVLTITLTPKVTCVVVDISDDDPEVQFSWFVDDVEVHTAQTQPREEQFNSTFRSVSELPIMHQDWLNGKEFKCRVDSDGFPAPIEKTISKTKGRPKAPQVYTIPPPKEQMAKDKVSLTCMITDFFPEDITVEWQWNGQPAENYKNTQPIMDTDGSYFVYSKLNVQKSNWEAGNTFTCSVLHEGLHNHHTEKSLSHSPGK light: not shown | 329 nM | 0.9 fold vs H237-mIgG1/MRAL-k0 | 5.73 nM | 36.6 fold vs H237-mIgG1/MRAL-k0 |  |  | 
2 | H237-MB869/MRAL-k0 (antibody, mouse IgG1, kappa, copies: 2 + 2) heavy: QVQLQESGPGLVKPSETLSLTCAVSGHSISHDHAWSWVRQPPGEGLEWIGFISYSGITNYNPSLQGRVTISRDNSKNTLYLQMNSLRAEDTAVYYCARSLARTTAMDYWGEGTLVTVSSAKTTPPSVYPLAPGSAAQTNSMVTLGCLVKGYFPEPVTVTWNSGSLSSGVHTFPAVLQSDLYTLSSSVTVPSSTWPSETVTCNVAHPASSTKVDKKIVPRDCGCKPCICEPNEVEIVFIFPPKPKDVLTITLTPKVTCVVVDISDDDPEVQFSWFVDDVEVHTAQTQPREEQFNSTFRSVSELPIMHQDWLNGKEFKCRVNSDGFPAPIYKTISKTKGRPKAPQVYTIPPPKEQMAKDKVSLTCMITDFFPEDITVEWQWNGQPAENYKNTQPIMDTDGSYFVYSKLNVQKSNWEAGNTFTCSVLHEGLHNHHTEKSLSHSPGK light: not shown | 300 nM | 0.9 fold vs H237-mIgG1/MRAL-k0 | 5.12 nM | 41 fold vs H237-mIgG1/MRAL-k0 |  |  | 
3 | H237-MB870/MRAL-k0 (antibody, mouse IgG1, kappa, copies: 2 + 2) heavy: QVQLQESGPGLVKPSETLSLTCAVSGHSISHDHAWSWVRQPPGEGLEWIGFISYSGITNYNPSLQGRVTISRDNSKNTLYLQMNSLRAEDTAVYYCARSLARTTAMDYWGEGTLVTVSSAKTTPPSVYPLAPGSAAQTNSMVTLGCLVKGYFPEPVTVTWNSGSLSSGVHTFPAVLQSDLYTLSSSVTVPSSTWPSETVTCNVAHPASSTKVDKKIVPRDCGCKPCICEPNEVEIVFIFPPKPKDVLTITLTPKVTCVVVDISDDDPEVQFSWFVDDVEVHTAQTQPREEQFNSTFRSVSELPIMHQDWLNGKEFKCRVNSDGFPAPIERTISKTKGRPKAPQVYTIPPPKEQMAKDKVSLTCMITDFFPEDITVEWQWNGQPAENYKNTQPIMDTDGSYFVYSKLNVQKSNWEAGNTFTCSVLHEGLHNHHTEKSLSHSPGK light: not shown | 269 nM | 1 fold vs H237-mIgG1/MRAL-k0 | 5.44 nM | 38.6 fold vs H237-mIgG1/MRAL-k0 |  |  | 
4 | H237-MB871/MRAL-k0 (antibody, mouse IgG1, kappa, copies: 2 + 2) heavy: QVQLQESGPGLVKPSETLSLTCAVSGHSISHDHAWSWVRQPPGEGLEWIGFISYSGITNYNPSLQGRVTISRDNSKNTLYLQMNSLRAEDTAVYYCARSLARTTAMDYWGEGTLVTVSSAKTTPPSVYPLAPGSAAQTNSMVTLGCLVKGYFPEPVTVTWNSGSLSSGVHTFPAVLQSDLYTLSSSVTVPSSTWPSETVTCNVAHPASSTKVDKKIVPRDCGCKPCICEPNEVEIVFIFPPKPKDVLTITLTPKVTCVVVDISDDDPEVQFSWFVDDVEVHTAQTQPREELFNSTFRSVSELPIMHQDWLNGKEFKCRVNSDGFPAPIEKTISKTKGRPKAPQVYTIPPPKEQMAKDKVSLTCMITDFFPEDITVEWQWNGQPAENYKNTQPIMDTDGSYFVYSKLNVQKSNWEAGNTFTCSVLHEGLHNHHTEKSLSHSPGK light: not shown | 169 nM | 1.7 fold vs H237-mIgG1/MRAL-k0 | 3.4 nM | 61.8 fold vs H237-mIgG1/MRAL-k0 |  |  | 
5 | H237-MB875/MRAL-k0 (antibody, mouse IgG1, kappa, copies: 2 + 2) heavy: QVQLQESGPGLVKPSETLSLTCAVSGHSISHDHAWSWVRQPPGEGLEWIGFISYSGITNYNPSLQGRVTISRDNSKNTLYLQMNSLRAEDTAVYYCARSLARTTAMDYWGEGTLVTVSSAKTTPPSVYPLAPGSAAQTNSMVTLGCLVKGYFPEPVTVTWNSGSLSSGVHTFPAVLQSDLYTLSSSVTVPSSTWPSETVTCNVAHPASSTKVDKKIVPRDCGCKPCICEPNEVEIVFIFPPKPKDVLTITLTPKVTCVVVDISDDDPEVQFSWFVDDVEVHTAQTQPREELFNSTFRSVSELPIMHQDWLNGKEFKCRVDSDGFPAPIEKTISKTKGRPKAPQVYTIPPPKEQMAKDKVSLTCMITDFFPEDITVEWQWNGQPAENYKNTQPIMDTDGSYFVYSKLNVQKSNWEAGNTFTCSVLHEGLHNHHTEKSLSHSPGK light: not shown | 147 nM | 1.9 fold vs H237-mIgG1/MRAL-k0 | 2.88 nM | 72.8 fold vs H237-mIgG1/MRAL-k0 |  |  | 
6 | H237-MB876/MRAL-k0 (antibody, mouse IgG1, kappa, copies: 2 + 2) heavy: QVQLQESGPGLVKPSETLSLTCAVSGHSISHDHAWSWVRQPPGEGLEWIGFISYSGITNYNPSLQGRVTISRDNSKNTLYLQMNSLRAEDTAVYYCARSLARTTAMDYWGEGTLVTVSSAKTTPPSVYPLAPGSAAQTNSMVTLGCLVKGYFPEPVTVTWNSGSLSSGVHTFPAVLQSDLYTLSSSVTVPSSTWPSETVTCNVAHPASSTKVDKKIVPRDCGCKPCICEPNEVEIVFIFPPKPKDVLTITLTPKVTCVVVDISDDDPEVQFSWFVDDVEVHTAQTQPREELFNSTFRSVSELPIMHQDWLNGKEFKCRVNSDGFPAPIYKTISKTKGRPKAPQVYTIPPPKEQMAKDKVSLTCMITDFFPEDITVEWQWNGQPAENYKNTQPIMDTDGSYFVYSKLNVQKSNWEAGNTFTCSVLHEGLHNHHTEKSLSHSPGK light: not shown | 191 nM | 1.5 fold vs H237-mIgG1/MRAL-k0 | 3.58 nM | 58.7 fold vs H237-mIgG1/MRAL-k0 |  |  | 
7 | H237-MB877/MRAL-k0 (antibody, mouse IgG1, kappa, copies: 2 + 2) heavy: QVQLQESGPGLVKPSETLSLTCAVSGHSISHDHAWSWVRQPPGEGLEWIGFISYSGITNYNPSLQGRVTISRDNSKNTLYLQMNSLRAEDTAVYYCARSLARTTAMDYWGEGTLVTVSSAKTTPPSVYPLAPGSAAQTNSMVTLGCLVKGYFPEPVTVTWNSGSLSSGVHTFPAVLQSDLYTLSSSVTVPSSTWPSETVTCNVAHPASSTKVDKKIVPRDCGCKPCICEPNEVEIVFIFPPKPKDVLTITLTPKVTCVVVDISDDDPEVQFSWFVDDVEVHTAQTQPREEQFNSTFRSVSELPIMHQDWLNGKEFKCRVDSDGFPAPIERTISKTKGRPKAPQVYTIPPPKEQMAKDKVSLTCMITDFFPEDITVEWQWNGQPAENYKNTQPIMDTDGSYFVYSKLNVQKSNWEAGNTFTCSVLHEGLHNHHTEKSLSHSPGK light: not shown | 195 nM | 1.4 fold vs H237-mIgG1/MRAL-k0 | 3.8 nM | 55.3 fold vs H237-mIgG1/MRAL-k0 |  |  | 
8 | H237-MB302/MRAL-k0 (antibody, mouse IgG1, kappa, copies: 2 + 2) heavy: QVQLQESGPGLVKPSETLSLTCAVSGHSISHDHAWSWVRQPPGEGLEWIGFISYSGITNYNPSLQGRVTISRDNSKNTLYLQMNSLRAEDTAVYYCARSLARTTAMDYWGEGTLVTVSSAKTTPPSVYPLAPGSAAQTNSMVTLGCLVKGYFPEPVTVTWNSGSLSSGVHTFPAVLQSDLYTLSSSVTVPSSTWPSETVTCNVAHPASSTKVDKKIVPRDCGCKPCICEVPEVEDVFIFPPKPKDVLTITLTPKVTCVVVDISKDDPEVQFSWFVDDVEVHTAQTQPREEQFNSTFRSVSELPIMHQDWLNGKEFKCRVNSAAFPAPIEKTISKTKGRPKAPQVYTIPPPKEQMAKDKVSLTCMITDFFPEDITVEWQWNGQPAENYKNTQPIMDTDGSYFVYSKLNVQKSNWEAGNTFTCSVLHEGLHNHHTEKSLSHSPGK light: not shown |  |  |  |  | 4.5 | 53.7 | 12
9 | H237-MB306/MRAL-k0 (antibody, mouse IgG1, kappa, copies: 2 + 2) heavy: QVQLQESGPGLVKPSETLSLTCAVSGHSISHDHAWSWVRQPPGEGLEWIGFISYSGITNYNPSLQGRVTISRDNSKNTLYLQMNSLRAEDTAVYYCARSLARTTAMDYWGEGTLVTVSSAKTTPPSVYPLAPGSAAQTNSMVTLGCLVKGYFPEPVTVTWNSGSLSSGVHTFPAVLQSDLYTLSSSVTVPSSTWPSETVTCNVAHPASSTKVDKKIVPRDCGCKPCICTAPEVEDVFIFPPKPKDVLTITLTPKVTCVVVDISKDDPEVQFSWFVDDVEVHTAQTQPREEQFNSTFRSVSELPIMHQDWLNGKEFKCRVNSAAFPAPIEKTISKTKGRPKAPQVYTIPPPKEQMAKDKVSLTCMITDFFPEDITVEWQWNGQPAENYKNTQPIMDTDGSYFVYSKLNVQKSNWEAGNTFTCSVLHEGLHNHHTEKSLSHSPGK light: not shown |  |  |  |  | 4.2 | 65.8 | 15.7
